Test results: article PMC6412040
One block for each substance: values may come before it.

How the values were obtained:
[1] = target: USP37^mUIM1,2,3 (Danio rerio USP37 312–927 with mutations in all three UIMs) (Danio rerio) (UniProt E7F6T8)
[2] = target: USP37^wt (isolated catalytic domain of USP37 from Danio rerio, residues 312–927) (Danio rerio) (UniProt E7F6T8)
Chain of USP37^wt (isolated catalytic domain of USP37 from Danio rerio, residues 312–927) (Danio rerio) (E7F6T8 312-927): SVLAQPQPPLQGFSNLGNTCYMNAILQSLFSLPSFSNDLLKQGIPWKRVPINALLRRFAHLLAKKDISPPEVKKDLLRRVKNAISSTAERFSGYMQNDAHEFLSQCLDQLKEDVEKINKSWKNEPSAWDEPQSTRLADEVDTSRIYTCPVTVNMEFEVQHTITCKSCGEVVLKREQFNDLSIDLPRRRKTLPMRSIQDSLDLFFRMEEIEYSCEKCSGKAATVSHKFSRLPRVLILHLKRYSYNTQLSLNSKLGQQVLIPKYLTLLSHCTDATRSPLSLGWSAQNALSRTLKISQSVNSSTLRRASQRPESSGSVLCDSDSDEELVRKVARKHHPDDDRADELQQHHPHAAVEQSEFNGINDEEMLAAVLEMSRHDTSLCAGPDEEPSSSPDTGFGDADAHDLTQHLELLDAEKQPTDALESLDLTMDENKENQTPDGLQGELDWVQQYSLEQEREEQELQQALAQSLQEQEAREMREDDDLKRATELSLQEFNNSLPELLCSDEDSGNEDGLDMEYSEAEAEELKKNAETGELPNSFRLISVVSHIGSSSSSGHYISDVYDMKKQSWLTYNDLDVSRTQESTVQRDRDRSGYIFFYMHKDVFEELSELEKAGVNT

Chain of USP37^mUIM1,2,3 (Danio rerio USP37 312–927 with mutations in all three UIMs) (Danio rerio) (E7F6T8 312-927 V680G/S684A/A774G/S778A/A796G/S800A): as the sequence (E7F6T8 312-927) above, with V369G, S373A, A463G, S467A, A485G, S489A counted along it

- KM of cleavage of K11-linked di-Ub (1 part IQF di-Ub, 4 parts unlabeled chain), Michaelis-Menten analysis, 25 nM enzyme [1]: 19 µM
- kcat of cleavage of K11-linked di-Ub (1 part IQF di-Ub, 4 parts unlabeled chain), Michaelis-Menten analysis [1]: 0.072 s⁻¹
- KM of cleavage of K11-linked di-Ub (1 part IQF di-Ub, 4 parts unlabeled chain), Michaelis-Menten analysis, 25 nM enzyme [2]: 11 µM
- kcat of cleavage of K11-linked di-Ub (1 part IQF di-Ub, 4 parts unlabeled chain), Michaelis-Menten analysis [2]: 0.19 s⁻¹
Substance: K11-linked di-Ub (from UniProt P0CG48 1-76; P0CG48 1-76) (complex)

- KM of cleavage of K48-linked di-Ub (1 part IQF di-Ub, 4 parts unlabeled chain), Michaelis-Menten analysis, 1.25 nM enzyme [1]: 0.72 µM
- kcat of cleavage of K48-linked di-Ub (1 part IQF di-Ub, 4 parts unlabeled chain), Michaelis-Menten analysis [1]: 0.015 s⁻¹
- KM of cleavage of K48-linked di-Ub (1 part IQF di-Ub, 4 parts unlabeled chain), Michaelis-Menten analysis, 1.25 nM enzyme [2]: 0.4 µM
- kcat of cleavage of K48-linked di-Ub (1 part IQF di-Ub, 4 parts unlabeled chain), Michaelis-Menten analysis [2]: 0.23 s⁻¹
Substance: K48-linked di-Ub (from UniProt P0CG48 1-76; P0CG48 1-76) (complex)

- KM of cleavage of K63-linked di-Ub (1 part IQF di-Ub, 4 parts unlabeled chain), Michaelis-Menten analysis, 12.5 nM enzyme [1]: 3.6 µM
- kcat of cleavage of K63-linked di-Ub (1 part IQF di-Ub, 4 parts unlabeled chain), Michaelis-Menten analysis [1]: 0.008 s⁻¹
- KM of cleavage of K63-linked di-Ub (1 part IQF di-Ub, 4 parts unlabeled chain), Michaelis-Menten analysis, 12.5 nM enzyme [2]: 1.7 µM
- kcat of cleavage of K63-linked di-Ub (1 part IQF di-Ub, 4 parts unlabeled chain), Michaelis-Menten analysis [2]: 0.027 s⁻¹
Substance: K63-linked di-Ub (from UniProt P0CG48 1-76; P0CG48 1-76) (complex)
